Results on 6 proteins are retold here after paper PMC10973816.

A short description of data set [1]: Non-permeabilised mAb-1438 immunolabelling, HEK, untagged. As to conditions: glycan lost; control: wild type.
Data set [2] in a line: EGFP in TRPM1-positive OPL puncta, electroporated mouse retina. As to conditions: glycan lost; control: wild type mGluR6-EGFP.
Data set [3] in a line: Total EGFP fluorescence, HEK. As to conditions: glycan lost; control: wild type mGluR6-EGFP.
A short description of data set [4]: Permeabilised mAb-1438 immunolabelling, HEK, untagged. As to conditions: glycan lost; control: wild type.

B1: mGluR6 (metabotropic glutamate receptor 6): N290Q (protein)
parent chain: MGRLRVLLLWLAWWLSQAGIAHGAGSVRLAGGLTLGGLFPVHARGAAGRACGTLKKEQGVHRLEAMLYALDRINADPELLPGVRLGARLLDTCSRDTYALEQALSFVQALIRGRGDGEEASVRCPGGVPPLRAAPPERVVAVVGASASSVSIMVANVLRLFAIPQISYASTAPELSDSTRYDFFSRVVPPDSYQAQAMVDIVRALGWNYVSTLASEGNYGESGVEAFVQISREAGGVCIAQSIKIPREPKPGEFHKVIRRLMETPNARGIIIFANEDDIRRVLEATRQANLTGHFLWVGSDSWGSKISPILNLEEEAVGAITILPKRASIDGFDQYFMTRSLENNRRNIWFAEFWEENFNCKLTSSGGQSDDSTRKCTGEERIGQDSTYEQEGKVQFVIDAVYAIAHALHSMHQALCPGHTGLCPAMEPTDGRTLLHYIRAVRFNGSAGTPVMFNENGDAPGRYDIFQYQATNGSASSGGYQAVGQWAEALRLDMEALQWSGDPHEVPPSQCSLPCGPGERKKMVKGVPCCWHCEACDGYRFQVDEFTCEACPGHMRPTPNHTGCRPTPVVRLTWSSPWAALPLLLAVLGIMATTTIIATFMRHNDTPIVRASGRELSYVLLTGIFLIYAITFLMVAEPCAAVCASRRLLLGLGTTLSYSALLTKTNRIYRIFEQGKRSVTPPPFISPTSQLVITFGLTSLQVVGVIAWLGAQPPHSVIDYEEQRTVDPEQARGVLKCDMSDLSLIGCLGYSLLLMVTCTVYAIKARGVPETFNEAKPIGFTMYTTCIIWLAFVPIFFGTAQSAEKIYIQTTTLTVSLSLSASVSLGMLYVPKTYVILFHPEQNVQKRKRSLKKTSTMAAPPKSENSEDAK
For the protein B1, the localisation_or_trafficking entry in data set [1] and in data set [2] was “no change” throughout.

B2: mGluR6 (metabotropic glutamate receptor 6): triple mutant (only N473 left) (protein)
parent chain: MGRLRVLLLWLAWWLSQAGIAHGAGSVRLAGGLTLGGLFPVHARGAAGRACGTLKKEQGVHRLEAMLYALDRINADPELLPGVRLGARLLDTCSRDTYALEQALSFVQALIRGRGDGEEASVRCPGGVPPLRAAPPERVVAVVGASASSVSIMVANVLRLFAIPQISYASTAPELSDSTRYDFFSRVVPPDSYQAQAMVDIVRALGWNYVSTLASEGNYGESGVEAFVQISREAGGVCIAQSIKIPREPKPGEFHKVIRRLMETPNARGIIIFANEDDIRRVLEATRQANLTGHFLWVGSDSWGSKISPILNLEEEAVGAITILPKRASIDGFDQYFMTRSLENNRRNIWFAEFWEENFNCKLTSSGGQSDDSTRKCTGEERIGQDSTYEQEGKVQFVIDAVYAIAHALHSMHQALCPGHTGLCPAMEPTDGRTLLHYIRAVRFNGSAGTPVMFNENGDAPGRYDIFQYQATNGSASSGGYQAVGQWAEALRLDMEALQWSGDPHEVPPSQCSLPCGPGERKKMVKGVPCCWHCEACDGYRFQVDEFTCEACPGHMRPTPNHTGCRPTPVVRLTWSSPWAALPLLLAVLGIMATTTIIATFMRHNDTPIVRASGRELSYVLLTGIFLIYAITFLMVAEPCAAVCASRRLLLGLGTTLSYSALLTKTNRIYRIFEQGKRSVTPPPFISPTSQLVITFGLTSLQVVGVIAWLGAQPPHSVIDYEEQRTVDPEQARGVLKCDMSDLSLIGCLGYSLLLMVTCTVYAIKARGVPETFNEAKPIGFTMYTTCIIWLAFVPIFFGTAQSAEKIYIQTTTLTVSLSLSASVSLGMLYVPKTYVILFHPEQNVQKRKRSLKKTSTMAAPPKSENSEDAK
Consider B2, for which the localisation_or_trafficking result in data set [1] is recorded as “decreases”. Also, the expression_or_secretion entry in data set [3] and in data set [4] was “decreases” throughout.

B3: mGluR6 (metabotropic glutamate receptor 6): N473Q (protein)
parent chain: MGRLRVLLLWLAWWLSQAGIAHGAGSVRLAGGLTLGGLFPVHARGAAGRACGTLKKEQGVHRLEAMLYALDRINADPELLPGVRLGARLLDTCSRDTYALEQALSFVQALIRGRGDGEEASVRCPGGVPPLRAAPPERVVAVVGASASSVSIMVANVLRLFAIPQISYASTAPELSDSTRYDFFSRVVPPDSYQAQAMVDIVRALGWNYVSTLASEGNYGESGVEAFVQISREAGGVCIAQSIKIPREPKPGEFHKVIRRLMETPNARGIIIFANEDDIRRVLEATRQANLTGHFLWVGSDSWGSKISPILNLEEEAVGAITILPKRASIDGFDQYFMTRSLENNRRNIWFAEFWEENFNCKLTSSGGQSDDSTRKCTGEERIGQDSTYEQEGKVQFVIDAVYAIAHALHSMHQALCPGHTGLCPAMEPTDGRTLLHYIRAVRFNGSAGTPVMFNENGDAPGRYDIFQYQATNGSASSGGYQAVGQWAEALRLDMEALQWSGDPHEVPPSQCSLPCGPGERKKMVKGVPCCWHCEACDGYRFQVDEFTCEACPGHMRPTPNHTGCRPTPVVRLTWSSPWAALPLLLAVLGIMATTTIIATFMRHNDTPIVRASGRELSYVLLTGIFLIYAITFLMVAEPCAAVCASRRLLLGLGTTLSYSALLTKTNRIYRIFEQGKRSVTPPPFISPTSQLVITFGLTSLQVVGVIAWLGAQPPHSVIDYEEQRTVDPEQARGVLKCDMSDLSLIGCLGYSLLLMVTCTVYAIKARGVPETFNEAKPIGFTMYTTCIIWLAFVPIFFGTAQSAEKIYIQTTTLTVSLSLSASVSLGMLYVPKTYVILFHPEQNVQKRKRSLKKTSTMAAPPKSENSEDAK
Consider B3, for which the localisation_or_trafficking entry in data set [1] is “decreases”; in data set [2] it was “no change”.

B4: mGluR6 (metabotropic glutamate receptor 6): 3Q!445 (protein)
parent chain: MGRLRVLLLWLAWWLSQAGIAHGAGSVRLAGGLTLGGLFPVHARGAAGRACGTLKKEQGVHRLEAMLYALDRINADPELLPGVRLGARLLDTCSRDTYALEQALSFVQALIRGRGDGEEASVRCPGGVPPLRAAPPERVVAVVGASASSVSIMVANVLRLFAIPQISYASTAPELSDSTRYDFFSRVVPPDSYQAQAMVDIVRALGWNYVSTLASEGNYGESGVEAFVQISREAGGVCIAQSIKIPREPKPGEFHKVIRRLMETPNARGIIIFANEDDIRRVLEATRQANLTGHFLWVGSDSWGSKISPILNLEEEAVGAITILPKRASIDGFDQYFMTRSLENNRRNIWFAEFWEENFNCKLTSSGGQSDDSTRKCTGEERIGQDSTYEQEGKVQFVIDAVYAIAHALHSMHQALCPGHTGLCPAMEPTDGRTLLHYIRAVRFNGSAGTPVMFNENGDAPGRYDIFQYQATNGSASSGGYQAVGQWAEALRLDMEALQWSGDPHEVPPSQCSLPCGPGERKKMVKGVPCCWHCEACDGYRFQVDEFTCEACPGHMRPTPNHTGCRPTPVVRLTWSSPWAALPLLLAVLGIMATTTIIATFMRHNDTPIVRASGRELSYVLLTGIFLIYAITFLMVAEPCAAVCASRRLLLGLGTTLSYSALLTKTNRIYRIFEQGKRSVTPPPFISPTSQLVITFGLTSLQVVGVIAWLGAQPPHSVIDYEEQRTVDPEQARGVLKCDMSDLSLIGCLGYSLLLMVTCTVYAIKARGVPETFNEAKPIGFTMYTTCIIWLAFVPIFFGTAQSAEKIYIQTTTLTVSLSLSASVSLGMLYVPKTYVILFHPEQNVQKRKRSLKKTSTMAAPPKSENSEDAK
Consider B4, for which the localisation_or_trafficking result is “decreases” in data set [1] and “no change” in data set [2]. Besides, the expression_or_secretion entry in data set [3] and in data set [4] was “decreases” each time.

B5: mGluR6 (metabotropic glutamate receptor 6): triple mutant (only N290 left) (protein)
parent chain: MGRLRVLLLWLAWWLSQAGIAHGAGSVRLAGGLTLGGLFPVHARGAAGRACGTLKKEQGVHRLEAMLYALDRINADPELLPGVRLGARLLDTCSRDTYALEQALSFVQALIRGRGDGEEASVRCPGGVPPLRAAPPERVVAVVGASASSVSIMVANVLRLFAIPQISYASTAPELSDSTRYDFFSRVVPPDSYQAQAMVDIVRALGWNYVSTLASEGNYGESGVEAFVQISREAGGVCIAQSIKIPREPKPGEFHKVIRRLMETPNARGIIIFANEDDIRRVLEATRQANLTGHFLWVGSDSWGSKISPILNLEEEAVGAITILPKRASIDGFDQYFMTRSLENNRRNIWFAEFWEENFNCKLTSSGGQSDDSTRKCTGEERIGQDSTYEQEGKVQFVIDAVYAIAHALHSMHQALCPGHTGLCPAMEPTDGRTLLHYIRAVRFNGSAGTPVMFNENGDAPGRYDIFQYQATNGSASSGGYQAVGQWAEALRLDMEALQWSGDPHEVPPSQCSLPCGPGERKKMVKGVPCCWHCEACDGYRFQVDEFTCEACPGHMRPTPNHTGCRPTPVVRLTWSSPWAALPLLLAVLGIMATTTIIATFMRHNDTPIVRASGRELSYVLLTGIFLIYAITFLMVAEPCAAVCASRRLLLGLGTTLSYSALLTKTNRIYRIFEQGKRSVTPPPFISPTSQLVITFGLTSLQVVGVIAWLGAQPPHSVIDYEEQRTVDPEQARGVLKCDMSDLSLIGCLGYSLLLMVTCTVYAIKARGVPETFNEAKPIGFTMYTTCIIWLAFVPIFFGTAQSAEKIYIQTTTLTVSLSLSASVSLGMLYVPKTYVILFHPEQNVQKRKRSLKKTSTMAAPPKSENSEDAK
Take B5: the localisation_or_trafficking result in data set [1] is recorded as “decreases”. In addition, the expression_or_secretion entry in data set [3] and in data set [4] was “decreases” throughout.

B6: mGluR6 (metabotropic glutamate receptor 6): 3Q!561 (protein)
parent chain: MGRLRVLLLWLAWWLSQAGIAHGAGSVRLAGGLTLGGLFPVHARGAAGRACGTLKKEQGVHRLEAMLYALDRINADPELLPGVRLGARLLDTCSRDTYALEQALSFVQALIRGRGDGEEASVRCPGGVPPLRAAPPERVVAVVGASASSVSIMVANVLRLFAIPQISYASTAPELSDSTRYDFFSRVVPPDSYQAQAMVDIVRALGWNYVSTLASEGNYGESGVEAFVQISREAGGVCIAQSIKIPREPKPGEFHKVIRRLMETPNARGIIIFANEDDIRRVLEATRQANLTGHFLWVGSDSWGSKISPILNLEEEAVGAITILPKRASIDGFDQYFMTRSLENNRRNIWFAEFWEENFNCKLTSSGGQSDDSTRKCTGEERIGQDSTYEQEGKVQFVIDAVYAIAHALHSMHQALCPGHTGLCPAMEPTDGRTLLHYIRAVRFNGSAGTPVMFNENGDAPGRYDIFQYQATNGSASSGGYQAVGQWAEALRLDMEALQWSGDPHEVPPSQCSLPCGPGERKKMVKGVPCCWHCEACDGYRFQVDEFTCEACPGHMRPTPNHTGCRPTPVVRLTWSSPWAALPLLLAVLGIMATTTIIATFMRHNDTPIVRASGRELSYVLLTGIFLIYAITFLMVAEPCAAVCASRRLLLGLGTTLSYSALLTKTNRIYRIFEQGKRSVTPPPFISPTSQLVITFGLTSLQVVGVIAWLGAQPPHSVIDYEEQRTVDPEQARGVLKCDMSDLSLIGCLGYSLLLMVTCTVYAIKARGVPETFNEAKPIGFTMYTTCIIWLAFVPIFFGTAQSAEKIYIQTTTLTVSLSLSASVSLGMLYVPKTYVILFHPEQNVQKRKRSLKKTSTMAAPPKSENSEDAK
On to B6, for which the localisation_or_trafficking entry was “decreases” in data set [1] and “abolishes” in data set [2]. Further, the expression_or_secretion entry in data set [3] is listed as “decreases, 3Q!561 had the highest expression among the triple mutants”; in data set [4], “decreases”.
